US20070111947A1, “Fibrin targeted therapeutics” (priority 2005, published 2007)

Tested on: arterial thrombosis (FeCl3 damaged carotid artery)
Assay: Arterial thrombosis model (FeCl3 damaged carotid artery)
Type: in vivo, rabbit
Procedure: Rabbits are initially sedated with a subcutaneous injection of Xylazine (5 mg/kg). Approximately 5 min following sedation, the animals are anesthetized with a dose of Ketamine (50 mg/kg) and Acepromazine (2.5 mg/kg) intramuscularly to achieve the appropriate level of anesthesia. Anesthetic depth will be assessed using the pain withdraw reflexes and EKG. Anesthesia is given intravenously every 45-60 min at 5-10 mg/kg to maintain proper anesthetic depth.
Left carotid artery is isolated using a ventral midline approach. A stenosis is initiated on the carotid artery reducing blood flow by 70-80%. 1 cm segments of carotid artery are placed in a plastic tube opened lengthwise, together with a filter paper (diameter 3 mm) soaked in ferric chloride (FeCl3, 40 μL, 40% w/w). After 15-30 min exposure of the artery to FeCl3, the plastic tube with the filter paper is removed and the artery is rinsed with saline. The time to vessel occlusion is monitored using a Doppler flow probe, which is attached to the carotid artery. ^125I fibrinogen (30 μCi/kg) is administered 5 min before initiation of the stenosis. The saline, test or control compounds are given via the jugular vein as an intravenous bolus injection immediately before or at the end of FeCl3 exposure. Blood sample are collected at 1, 3, 5, 12, 20, 30, 45, 60 and 90 min after compound injection via the contra lateral jugular vein. The time that blood flow dropped to zero is recorded as the occlusion time of blood vessel. At the end of experiment, animals are sacrificed with an overdose of pentobarbital (120 mg/kg). Both the clot from the FeCl3 damaged artery, and the damaged artery after clot removal are weighed. Right carotid artery is used as a control. Concentration of test compound and fibrin in the clot are detected by γ-countering.
Pharmacokinetics of compound are analyzed by using the WinNonLin program.

[1] = compared to an equivalent dose of Non-binder control, FIG. 4

CCC(C)[C@H](CC(=O)[C@@H](C)Cc1c[nH]cn1)C(=O)N[C@@H](CC(C)C)C(=O)NCc1ccc(CCC(=O)[C@H](CCNC(=O)CC[C@H]2C(=O)[O][Y]345[O]C(=O)CN(CCN2CCN(CC(=O)[O]3)CC(=O)[O]4)CC(=O)[O]5)NC(=O)CC[C@H]2C(=O)[O][Y]345[O]C(=O)CN(CCN2CCN(CC(=O)[O]3)CC(=O)[O]4)CC(=O)[O]5)cc1 (stereo partly shown) [Hybrid Molecule 3]
higher level bound to clot [1]: 5 fold
higher level bound to clot plus damaged artery [1]: 2 fold
increased time to occlusion (compared to an equivalent dose of melagatran alone or the Non-binder, FIG. 2): approximately 4 fold
decrease in clot weight (compared to an equivalent dose of melagatran or Non-binder control, FIG. 3): approximately 2 fold
